Reference: patent US20250281611A1 (BIOSCEPTRE AUST, published 2025)

T1: CD19 (UniProt P15391 20-556, limits assumed)
T1 construct: whole, on cells; also called CD19 on JeKo-1
T1 sequence (looked up): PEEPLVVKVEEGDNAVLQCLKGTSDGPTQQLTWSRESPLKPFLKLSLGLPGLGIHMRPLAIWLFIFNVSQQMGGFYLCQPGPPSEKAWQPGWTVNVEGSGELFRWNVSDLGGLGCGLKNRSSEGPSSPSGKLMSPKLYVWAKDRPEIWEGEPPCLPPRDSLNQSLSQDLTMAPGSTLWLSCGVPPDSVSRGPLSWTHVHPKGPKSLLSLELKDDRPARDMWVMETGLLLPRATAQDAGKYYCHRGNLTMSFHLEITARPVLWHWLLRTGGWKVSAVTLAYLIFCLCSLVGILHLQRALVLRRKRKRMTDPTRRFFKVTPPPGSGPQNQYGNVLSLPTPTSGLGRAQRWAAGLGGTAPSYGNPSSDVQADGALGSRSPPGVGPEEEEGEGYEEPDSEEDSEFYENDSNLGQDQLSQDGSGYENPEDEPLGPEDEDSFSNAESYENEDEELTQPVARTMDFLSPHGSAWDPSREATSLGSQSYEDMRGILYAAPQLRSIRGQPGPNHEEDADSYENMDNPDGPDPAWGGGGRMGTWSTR

B1: CD19 BRIDGE variant B29 (Fab)
heavy: EVQLVESGGGLVKPGGSLKLSCAASGYTFTSYVMHWVRQAPGKGLEWIGYINPYNDGTKYNEKFQGRVTISSDKSISTAYMELSSLRSEDTAMYYCARGTYYYGTRVFDYWGQGTLVTVSSASTKGPSVFPLAPSSKSTSGGTAALGCLVKDYFPEPVTVSWNSGALTSGVHTFPAVLQSSGLYSLSSVVTVPSSSLGTQTYICNVNHKPSNTKVDKKVEPKSCHHHHHH
light: DFPGHNYTTRNILPGLNITSTFHKTSGSGKGSEPKSSDKTHTGSDIVMTQSPATLSLSPGERATLSCRSSKSLQNVNGNTYLYWFQQKPGQSPQLLIYRMSNLNSGVPDRFSGSGSGTEFTLTISSLEPEDFAVYYCMQHLEYPITFGAGTKLEIKRTVAAPSVFIFPPSDEQLKSGTASVVCLLNNFYPREAKVQWKVDNALQSGNSQESVTEQDSKDSTYSLSSTLTLSKADYEKHKVYACEVTHQGLSSPVTKSFNRGEC
B2: CD19 BRIDGE variant B32 (Fab)
heavy: EVQLVESGGGLVKPGGSLKLSCAASGYTFTSYVMHWVRQAPGKGLEWIGYINPYNDGTKYNEKFQGRVTISSDKSISTAYMELSSLRSEDTAMYYCARGTYYYGTRVFDYWGQGTLVTVSSASTKGPSVFPLAPSSKSTSGGTAALGCLVKDYFPEPVTVSWNSGALTSGVHTFPAVLQSSGLYSLSSVVTVPSSSLGTQTYICNVNHKPSNTKVDKKVEPKSCHHHHHH
light: DFPGHNYTTRNILPGLNITSGSEPKSSDKTHTGGGGSDIVMTQSPATLSLSPGERATLSCRSSKSLQNVNGNTYLYWFQQKPGQSPQLLIYRMSNLNSGVPDRFSGSGSGTEFTLTISSLEPEDFAVYYCMQHLEYPITFGAGTKLEIKRTVAAPSVFIFPPSDEQLKSGTASVVCLLNNFYPREAKVQWKVDNALQSGNSQESVTEQDSKDSTYSLSSTLTLSKADYEKHKVYACEVTHQGLSSPVTKSFNRGEC
B3: CD19 BRIDGE variant B33 (Fab)
heavy: EVQLVESGGGLVKPGGSLKLSCAASGYTFTSYVMHWVRQAPGKGLEWIGYINPYNDGTKYNEKFQGRVTISSDKSISTAYMELSSLRSEDTAMYYCARGTYYYGTRVFDYWGQGTLVTVSSASTKGPSVFPLAPSSKSTSGGTAALGCLVKDYFPEPVTVSWNSGALTSGVHTFPAVLQSSGLYSLSSVVTVPSSSLGTQTYICNVNHKPSNTKVDKKVEPKSCHHHHHH
light: DFPGHNYTTRNILPGLNITSGGGGSEPKSSDKTHTGGGGSDIVMTQSPATLSLSPGERATLSCRSSKSLQNVNGNTYLYWFQQKPGQSPQLLIYRMSNLNSGVPDRFSGSGSGTEFTLTISSLEPEDFAVYYCMQHLEYPITFGAGTKLEIKRTVAAPSVFIFPPSDEQLKSGTASVVCLLNNFYPREAKVQWKVDNALQSGNSQESVTEQDSKDSTYSLSSTLTLSKADYEKHKVYACEVTHQGLSSPVTKSFNRGEC
B4: CD19 BRIDGE variant B30 (Fab)
heavy: EVQLVESGGGLVKPGGSLKLSCAASGYTFTSYVMHWVRQAPGKGLEWIGYINPYNDGTKYNEKFQGRVTISSDKSISTAYMELSSLRSEDTAMYYCARGTYYYGTRVFDYWGQGTLVTVSSASTKGPSVFPLAPSSKSTSGGTAALGCLVKDYFPEPVTVSWNSGALTSGVHTFPAVLQSSGLYSLSSVVTVPSSSLGTQTYICNVNHKPSNTKVDKKVEPKSCHHHHHH
light: DFPGHNYTTRNILPGLNITSTFHKTSGSGKGGGGSEPKSSDKTHTGSDIVMTQSPATLSLSPGERATLSCRSSKSLQNVNGNTYLYWFQQKPGQSPQLLIYRMSNLNSGVPDRFSGSGSGTEFTLTISSLEPEDFAVYYCMQHLEYPITFGAGTKLEIKRTVAAPSVFIFPPSDEQLKSGTASVVCLLNNFYPREAKVQWKVDNALQSGNSQESVTEQDSKDSTYSLSSTLTLSKADYEKHKVYACEVTHQGLSSPVTKSFNRGEC
B5: CD19 BRIDGE variant B34 (Fab)
heavy: EVQLVESGGGLVKPGGSLKLSCAASGYTFTSYVMHWVRQAPGKGLEWIGYINPYNDGTKYNEKFQGRVTISSDKSISTAYMELSSLRSEDTAMYYCARGTYYYGTRVFDYWGQGTLVTVSSASTKGPSVFPLAPSSKSTSGGTAALGCLVKDYFPEPVTVSWNSGALTSGVHTFPAVLQSSGLYSLSSVVTVPSSSLGTQTYICNVNHKPSNTKVDKKVEPKSCHHHHHH
light: DFPGHNYTTRNILPGLNITSTFHKTSGSGKEPKSSDKTHTGGGGSDIVMTQSPATLSLSPGERATLSCRSSKSLQNVNGNTYLYWFQQKPGQSPQLLIYRMSNLNSGVPDRFSGSGSGTEFTLTISSLEPEDFAVYYCMQHLEYPITFGAGTKLEIKRTVAAPSVFIFPPSDEQLKSGTASVVCLLNNFYPREAKVQWKVDNALQSGNSQESVTEQDSKDSTYSLSSTLTLSKADYEKHKVYACEVTHQGLSSPVTKSFNRGEC
B6: CD19 BRIDGE variant B35 (Fab)
heavy: EVQLVESGGGLVKPGGSLKLSCAASGYTFTSYVMHWVRQAPGKGLEWIGYINPYNDGTKYNEKFQGRVTISSDKSISTAYMELSSLRSEDTAMYYCARGTYYYGTRVFDYWGQGTLVTVSSASTKGPSVFPLAPSSKSTSGGTAALGCLVKDYFPEPVTVSWNSGALTSGVHTFPAVLQSSGLYSLSSVVTVPSSSLGTQTYICNVNHKPSNTKVDKKVEPKSCHHHHHH
light: DFPGHNYTTRNILPGLNITSTFHKTSGSGKGSEPKSSDKTHTGGGGSDIVMTQSPATLSLSPGERATLSCRSSKSLQNVNGNTYLYWFQQKPGQSPQLLIYRMSNLNSGVPDRFSGSGSGTEFTLTISSLEPEDFAVYYCMQHLEYPITFGAGTKLEIKRTVAAPSVFIFPPSDEQLKSGTASVVCLLNNFYPREAKVQWKVDNALQSGNSQESVTEQDSKDSTYSLSSTLTLSKADYEKHKVYACEVTHQGLSSPVTKSFNRGEC
B7: CD19 BRIDGE variant B31 (Fab)
heavy: EVQLVESGGGLVKPGGSLKLSCAASGYTFTSYVMHWVRQAPGKGLEWIGYINPYNDGTKYNEKFQGRVTISSDKSISTAYMELSSLRSEDTAMYYCARGTYYYGTRVFDYWGQGTLVTVSSASTKGPSVFPLAPSSKSTSGGTAALGCLVKDYFPEPVTVSWNSGALTSGVHTFPAVLQSSGLYSLSSVVTVPSSSLGTQTYICNVNHKPSNTKVDKKVEPKSCHHHHHH
light: DFPGHNYTTRNILPGLNITSEPKSSDKTHTGGGGSDIVMTQSPATLSLSPGERATLSCRSSKSLQNVNGNTYLYWFQQKPGQSPQLLIYRMSNLNSGVPDRFSGSGSGTEFTLTISSLEPEDFAVYYCMQHLEYPITFGAGTKLEIKRTVAAPSVFIFPPSDEQLKSGTASVVCLLNNFYPREAKVQWKVDNALQSGNSQESVTEQDSKDSTYSLSSTLTLSKADYEKHKVYACEVTHQGLSSPVTKSFNRGEC

Legend:
nfP2X7 CAR 1 [1] = biological target: T2, nfP2X7 CAR 1; assay: flow cytometry, anti-His-FITC, MFI on EGFR+ (CAR+) over EGFR- (CAR-) T cells
T2 construct: CAR-positive cells gated by the co-expressed EGFR marker; also called nfP2X7 targeted CAR; nfP2X7 CAR on EGFR+ T cells
Outline: (§1)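 CAR T cells incubated with BRiDGE variants at saturating concentrations; bound BRiDGE detected with anti-His-FITC by flow cytometry. EGFR marks CAR expression. Value is median fluorescence intensity on EGFR+ (CAR+) cells divided by that on EGFR− (CAR−) cells.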

CD19 [2] = biological target: T1, CD19; assay: flow cytometry, JeKo-1 cells, anti-His-FITC detection, MFI over no-bridge control
Procedure: (§2) JeKo-1 cells were incubated with different CD19 BRiDGE variants at saturating concentrations. […] The MFI intensity correlates with the number of secondary bound antibodies bound to the CD19 BRiDGE variants that are only detected if they are bound to the JeKo-1 cells. MFI: median fluorescence intensity. BLitz: Bio-Layer interferometry (BLI) technology using HIS-tag identification tips. […] The higher the MFIR, the stronger the binding.

CD19 [3] = biological target: T1, CD19; assay: flow cytometry, JeKo-1 cells, bridge at saturating conc., BIL03s-AF647 detection
Procedure: as §2

nfP2X7 CAR 1 [4] = biological target: T2, nfP2X7 CAR 1; assay: flow cytometry, anti-His-FITC, MFI on EGFR+ (CAR+) T cells over background 0.44
Outline: as §1

nfP2X7 CAR 1 [5] = biological target: T2, nfP2X7 CAR 1; assay: flow cytometry, nfP2X7 CAR 1 T cells (EGFR+ gate), anti-His-FITC detection
CD19 [6] = biological target: T1, CD19; assay: flow cytometry, JeKo-1 cells, bridge at saturating conc., anti-His-FITC detection
Procedure: as §2

CD19 [7] = biological target: T1, CD19; assay: flow cytometry, JeKo-1 cells, BIL03s-AF647 detection, MFI over no-bridge control
Procedure: as §2

Binder	HisTag MFI Ratio of EGFR+/EGFR- (nfP2X7 CAR 1 [1])	MFIR HisTag FITC (CD19 [2])	MFI Bil03 AF647 (CD19 [3])	HisTag MFI Ratio (background 0.44) (nfP2X7 CAR 1 [4])	MFI HisTag FITC in EGFR+ Population (nfP2X7 CAR 1 [5])	MFI HisTag FITC (CD19 [6])	MFIR BIL03 AF647 (CD19 [7])
B1	4.2	3.03	7.44	5.1	2.25	2.33	16.2
B2	4	2.99	8.99	5.9	2.61	2.3	19.5
B3	3.9	2.92	7.12	5.4	2.39	2.25	15.5
B4	4.3	3.05	7.48	4.8	2.12	2.35	16.3
B5	4.3	2.84	7.04	5.5	2.41	2.19	15.3
B6	4.1	3	9.49	5.7	2.51	2.31	20.6
B7	3.9	2.77	5.83	6.1	2.67	2.13	12.7
